Consider two molecules from US20180355061A1 (Janssen / Centocor, published 2018).

Positions count from the first letter of the chain named.

Test [1] deals with T1, human PD-1 expressed on cells (human, UniProt Q15116 25-288). Put plainly: cell-based or functional assay.
Test [2] has as its target T2, human PD-1 (soluble analyte in SPR) (human, UniProt Q15116 25-170, limits assumed).
T2 construct: also called CD279; PDCD1
Put plainly: SPR (ProteOn XPR36), mAb captured on anti-human IgG Fc, PD-1 as analyte, 25 C. The procedure: (§1) Affinity measurements were performed using a ProteOn XPR36 system (BioRad). […] Approximately 5000 RU (response units) of mAbs were immobilized. The kinetic experiments were performed at 25° C. in running buffer (DPBS+0.01% P20+100 μg/mL BSA). To perform kinetic experiments, 200 RU of mAbs were captured followed by injections of analytes (human and cyno PD-1) at concentrations ranging from 1.563 nM to 400 nM (in a […] serial dilution). The association phase was monitored for 3 minutes at 50 μL/min, then followed by 10 or 15 minutes of buffer flow (dissociation phase). The chip surface was regenerated with two 18 second pulses of 100 mM H₃PO₄ (Sigma, Cat #7961) at 100 μL/min.
(§2) The collected data were processed using ProteOn Manager software. First, the data was corrected for background using inter-spots. Then, double reference subtraction of the data was performed by using the buffer injection for analyte injections. The kinetic analysis of the data was performed using a Langmuir 1:1 binding model. The result for each mAb was reported in the format of ka (On-rate), kd (Off-rate) and KD (equilibrium dissociation constant).
Affinity of the parental and humanized antibodies to PD-1 was measured using SPR as described in Example 1.

The target in test [3] is T1, human PD-1 expressed on cells. Nature of the test: cell-based or functional assay. The source holds these as a separate data set.
In test [4] the target is T3, cyno PD-1 (soluble analyte in SPR) (cyno).
T3 construct: also called cynomolgus PD-1
Nature of the test: SPR (ProteOn XPR36), mAb captured on anti-human IgG Fc, cyno PD-1 as analyte, 25 C. The procedure: as §1, §2
(§3) Affinity of the antibodies to human and cyno PD-1 was measured using SPR as described in Example 1.

The target in test [5] is T2, human PD-1 (soluble analyte in SPR). Put plainly: SPR (ProteOn XPR36), mAb captured on anti-human IgG Fc, human PD-1 as analyte, 25 C. As for the experimental part:
as §1, §2, §3

T2 sequence (Q15116 25-170 limits assumed): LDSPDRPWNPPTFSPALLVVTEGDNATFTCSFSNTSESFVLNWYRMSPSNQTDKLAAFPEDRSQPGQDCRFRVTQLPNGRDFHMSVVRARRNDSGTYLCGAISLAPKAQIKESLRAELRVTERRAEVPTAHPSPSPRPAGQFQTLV
T1 sequence (Q15116 25-288 limits assumed): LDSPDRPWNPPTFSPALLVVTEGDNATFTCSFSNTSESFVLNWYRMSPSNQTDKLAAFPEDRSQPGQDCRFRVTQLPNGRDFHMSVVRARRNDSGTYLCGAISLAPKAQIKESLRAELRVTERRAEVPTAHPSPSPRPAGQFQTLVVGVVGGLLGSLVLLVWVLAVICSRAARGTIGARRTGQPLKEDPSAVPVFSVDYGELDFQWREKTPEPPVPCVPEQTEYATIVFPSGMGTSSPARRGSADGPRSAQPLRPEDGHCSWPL

B1: PD1B878 (antibody, human IgG1, kappa, V domains shown)
VH: QVQLVQSGSELKKPGASVKVSCKASGYTFTDYSMHWVRQAPGQGLEWMGWINIETGEPTYAQGFTGRFVFSLDTSVSTAYLQISSLKAEDTAVYFCARDYYGTYFYAMDYWGQGTLVTVSS
VL: EIVLTQSPATLSLSPGERATLSCTASSSVSSSYLHWYQQKPGLAPRLLIYSTSNLASGIPDRFSGSGSGTDYTLTISRLEPEDFAVYYCHQYHRSPLTFGQGTKLEIKR
notes: C84S variant of PD1B743, IgG1; also called VH PD1H405; VL PD1L469
B1: the “% inhibition of activated T cells, CMV-PBMC assay, donor D1” value in test [1] stood at 78.3%. In addition, in test [2], the Kd was determined as 58.9 nM, the koff was 0.00351 s⁻¹ and the kon came out at 59800 M⁻¹ s⁻¹.

B2: PD1B1094 (antibody, human IgG1, kappa, V domains shown)
VH: B1 VH with E57H
VL: B1 VL with S30P
notes: also called VH PD1H586; VL PD1L652
With B2, the “Mean % inhibition across two donors, CMV-PBMC assay” value in test [3] came to 77.9%. In test [4], the Kd was determined as 12 nM, the koff was 0.00162 s⁻¹ and the kon was 135000 M⁻¹ s⁻¹. In test [5], this molecule gave a Kd of 0.871 nM, a koff of 9.16e-05 s⁻¹ and a kon of 105000 M⁻¹ s⁻¹.

A word on the Kd: it is a measure of binding affinity in units of concentration. A higher Kd goes with a looser complex. As a reminder, the koff is a measure of how fast the partners let go of each other. The term kon denotes a measure of how fast the partners come together. Lower therefore signals slower complex formation.
